The results in this text go back to PMC3813429.

Usually Kd stands for the equilibrium constant for the complex coming apart. Higher therefore signals a looser complex. Usually koff stands for a measure of how fast the partners let go of each other. A lower koff goes with slow dissociation. Usually kon stands for the rate constant with which the complex forms. Low readings indicate slow association, high ones fast association.

The target of the first test is HaALP, membrane bound alkaline phosphatase of Helicoverpa armigera (Helicoverpa armigera (endogenous in larval midgut)).
Experiment: not given
Cry1Ac W545A (domain or fragment) yielded an LC50, insect bioassay on H. armigera neonates (toxin on artificial diet surface, 5 days) of 34.1 µg/mL.

The target is the same in the next test. As to the kind of experiment: SPR. For orientation: SPR reads the build-up and loss of mass on a sensor chip optically.
“Cry1Ac triple mutant (Q509A-N510A-R511A) (domain or fragment)” returned a Kd of 262 nM, a koff of 0.00269 s⁻¹ and a kon of 10200 M⁻¹ s⁻¹.
In turn, “Cry1Ac tetra mutant (Q509A-N510A-R511A.Y513A) (domain or fragment)” showed a Kd of 2420 nM, a koff of 0.000184 s⁻¹ and a kon of 75 M⁻¹ s⁻¹.
On the same counts, the results for Cry1Ac W545A (domain or fragment) are 7150 nM, 0.00688 s⁻¹ and 963 M⁻¹ s⁻¹.
The corresponding values for Cry1Ac Q509A (domain or fragment) are 29.6 nM, 0.00571 s⁻¹ and 193000 M⁻¹ s⁻¹.
For Cry1Ac R511A (domain or fragment), the Kd was determined as 32 nM, the koff is 0.00179 s⁻¹ and the kon was 55800 M⁻¹ s⁻¹.
The corresponding values for Cry1Ac Y513A (domain or fragment) are 223 nM, 0.00147 s⁻¹ and 6610 M⁻¹ s⁻¹.
On the same counts, the results for Cry1Ac N510A (domain or fragment) are 58.4 nM, 0.00136 s⁻¹ and 23200 M⁻¹ s⁻¹.
